# T1: Canine IL-13 with C-terminal Avi-HIS tag (canine, biotin label when loaded on SA biosensors (Example 4); site not stated)
# T1 construct: also called cIL-13; biotinylated avitag-cIL13
# T1 chain: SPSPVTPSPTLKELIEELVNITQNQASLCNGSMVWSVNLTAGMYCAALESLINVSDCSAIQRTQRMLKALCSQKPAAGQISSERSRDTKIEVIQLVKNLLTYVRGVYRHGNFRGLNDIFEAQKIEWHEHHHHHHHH
# T2: Canine IL-4 with C-terminal Avi-HIS tag (canine, biotin label when loaded on SA biosensors (Example 4); site not stated)
# T2 construct: also called cIL-4; biotinylated avitag-cIL-4
# T2 chain: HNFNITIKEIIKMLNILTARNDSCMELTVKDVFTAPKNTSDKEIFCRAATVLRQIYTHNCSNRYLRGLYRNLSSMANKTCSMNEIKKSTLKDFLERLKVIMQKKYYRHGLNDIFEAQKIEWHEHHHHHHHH
# B1: IL13 P4A-2 E11 scFv (scFv)
# scFv: QSALTQTASVSGSLGQRVTISCTGATRNVGTVGVTWYQQVPGKAPKLLLFSNGDRPSWVPDRFSGSTSGYSATLIINGVQAEDEAMYHCQSFDTMPDAHYMFGSGTQLTVLGGGSSRSSSSGGGGSGGGGELTLQESGPGLVKPSQTLSLTCVVSGASVTSTNYWNWIRQRPGRGLEWMGYWTGSTKYNPAFQGRISITADTAKNQFSLQLSSMTTEDTAVYYCARSSTWINGFDYWGQGTLVTVSSESPSPPNLTSGQAGQ
# notes: scFv purified from E. coli periplasm on Ni-NTA
# B2: IL13 P2-1 H5 scFv (scFv)
# scFv: QSVLNQPPSVSAALGQRVTISCTGTNTNIGSGYSVQWYQQLPGESPKPIIYGSSNRPSGVPARFSGSKSGSTGTLTITGIQAEDEADYHCQSYDDSLDGHAVFGGGTQLTVLGGGSSRSSSSGGGGSGGGGEVQLVQSGGDLVKPGGSLRLSCVASGFTFSGYDMSWVRQSPGKGLQWVATVWSDGNTIYYADAVKGRFTISRDNAKNTVYLQMNSLRAEDTAMYYCAKSPYCTDDYCPWGDYLDLWGQGTLVTVSSASTTAPSVTSGQAGQ
# notes: as for B1
# B3: IL13 P3-05 scFv (scFv)
# scFv: SYVLTQPPSVTVPLRQTARISCGGDNIRSKNVHWYQQKPGQAPVLIIYNDSNRPTGIPERFSGSNSGNMATLTIRGALAEDEADYYCQVWANDGYVFGSGTQLTVLGGGSSRSSSSGGGGSGGGGEVQLVESGGDSVRPGGSLRLSCVASGFTFSRYNMGWVRQAPGKGLQWVAWIYDGGSRTSYADAVKGRFTISRDNAKDTLYLQMDDLRVDDTAVYYCARDPSSWGSLFDYWGQGTLVTVSSASTTAPSVTSGQAGQ
# notes: as for B1
# B4: IL4 P3-1 B10 scFv (scFv)
# scFv: QSVLTQPTSVSAALGQRVTISCTGSNANIGSVYDVQWYQQLPGKSPKTIIYGNTHRPSGVPVRFSGSKSGSTATLTITGIQAEDEADYYCQSYDATLHYVFGSGTQLTVLGGGSSRSSSSGGGGSGGGGEVQLVESGGDLVKPGGSLRLSCVASGFTFSNYDMSWVRQAPGKGLQWVSTISYDGNNTYYSDAVKGRFTISRDNARNTLYLQMNSLRAEDTAVYYCAKEFDIPWDNFDYWGQGTLVTVSSASTTAPSVTSGQAGQ
# notes: as for B1
# B5: IL4 P3-1 B9 scFv (scFv)
# scFv: QAVLTQPASVSAALGQRVTISCTGTATNVGGGYDVQWYQQFPGRPPKTIIYGNYNRPSGVPDRFSASTSGTTATLTITGIQVADEADYYCQSFDTTFNGHVFGAGTQLTILGGGSSRSSSSGGGGSGGGGELQLVELGGDLVKPGGSLRLSCVASGFTFSSYGMSWVRQSPGKGLQWVADISSSGSTYYADAVKGRFTISRDNAKSTLYLQMNSLRAEDTAVYYCAKAGYGSYYDFGMDYWGHGTSVFVSSESPSPPNLTSGQAGQ
# notes: as for B1
# B6: IL4 P3-1 C4 5LC scFv (scFv)
# scFv: QAVLNQPASVSGSLGQRVTISCSGSTNNIGVVGASWYQQFPGKAPKLLVYSDGDRPSGVPDRFSGSNSGYSDTLTITGLQAEDEADYYCQSFDTTLNAYVFGSGTQLTVLGGGSSRSSSSGGGGSGGGGEVPLVESGGDLVKPGGSLRISCVASGITFNNDDMGWVRQAPGKGLQWLAEISSSGTSTYYADAVKGRFTISRDNAKNTVYLQMNSLKAEDTGVYYCVGEDGYMALGFWGQGTLVTVSSASTTAPSVTSGQAGQ
# B7: IL4 P3-1 D7 scFv (scFv)
# scFv: QSMLTQPASVSGSLGQRVAISCSGSTNNIGIFGATWYQHLPGKAPKFLLYSDGNRPSGVPDRFSGSDSGNSVTLMITALQAEDEADYYCQSFDTTLGAYVFGSGTQLTILGGGSSRSSSSGGGGSGGGGEVQLVQSGGDLVKPGGSLRLSCVASGFAFNGYDMDWVRLAPGKGLQWLSEISSSGSPTYYADAVEGRFTISRDNAKNTLYLQMDSLRAEDTAVYYCARAGEYTYGYEGYYFDYWGQGTLVTVSSASTTAPSVTSGQAGQ
# notes: as for B1
# B8: IL4 P4-1 A10 scFv (scFv)
# scFv: QSVLNQLPSVSGSLGQKVTIRCSGNTDNIGMVGAAWYRQVPGEAPKLLLYSDGNRPSGVPDRFSGSDSGRSATLTITGLQPEDEADYYCQSLDPTVPGNYLFGSGTQLTILGGGSSRSSSSGGGGSGGGGEVQLVESGGDLVKPGGSLRLSCVASGFTFSDYDMTWVRQAPGKGLQWVADINNGGSSTTYADAVKGRFTISRDNAKNTLYLQMNSLRAEDTAMYYCAKEGDNTWLSFDSWGQGTLVTVSSESPSPPNLTSGQAGQ
# notes: as for B1
# B9: IL4 P4-1 G3 scFv (scFv)
# scFv: QSVLNQLPSLSMNMGETATFTCEGDNIGHKYVNWYQQKPGQAPVLTIYEDNKRPSGIPERFSGSNSGNTATLTISGARAEDEADYYCESEVSTGIVFGGGTHLTVLGGGSSRSSSSGGGGSGGGGEVQLVESGGDLVKPGGSLRLSCVASGFTFSSYDMDWVRQAPGKGLEWLSEISTNGDRTHYADAVKGRFAISRDNAKNTVYLQMNSLRAEDTAIYYCVRDGYEYLAFDYWGQGTLVTVSSASTTAPSVTSGQAGQ
# notes: as for B1
# B10: IL4 P4A-1 A4 scFv (scFv)
# scFv: SYVLSQPPSVSVTPSETAHITCGGNNIGSKYVQWIRQSAGQAPVTIIYGNTNRPTGIPERFSGANSGNTATLTISGVLAEDEADYYCQVGDTDTTVFGGGTHLTVLGGGSSRSSSSGGGGSGGGGEVQLVESGGDLVKPGGSLRLSCVASGFNFSRYSMSWVRQAPEKGLQLVAAVNSGGSRTWYADAVQGRFTVSRDNAKNTLFLEMSSLKLEDTAMYYCAKDLWSTTIAEYDYWGQGTLVTVSSASTTAPSVTSGQAGQ
# notes: as for B1
# B11: IL4 P4A-1 E10 scFv (scFv)
# scFv: QSVLNQPPSVSAALGQRVTVSCTGTDTNIGSGYDVQWYQQVPGKSPTPIIYGNTNRPSGVPERFSGSKSGNTATLTITGIQAEDEADYYCQSFDDNVDGYVFGSGTQLTILGGGSSRSSSSGGGGSGGGGEVPLVESGGDLVKPGGSLRLSCVASGFTFSDYHMSWVRQAPGKGLQWVADISSSGSTYYADAVKGRFTISRDNAKNTLYLQMNSLRAEDTAVYYCARQWGEFDYWGQGTLVTVSSESPSPPNLTSGQAGQ
# notes: as for B1
# B12: IL4 P4A-1 F10 scFv (scFv)
# scFv: QTVVTQEPSLSVSPGGTVTLTCGLSSGSVSTGNYPGWYQQTQGRAPRSIIYDTNSRPSGVPDRFSGSISGNKAVLTITGAQPEDEADYYCSLYTGIAYTDVVFGGGTHLTVLGGGSSRSSSSGGGGSGGGGEVQLVQSGGDLVKPAGSLRLSCVASGFTFNSYAMSWVRQAPGKGLQWVAGINSGGSTTTYADAVKGRFTISRDNAKNTLYLQMNSLRAEDTAVYYCAKDQNSYYPSDTFEYWGQGTLVTVSSESPSPPNLTSGQAGQ
# notes: as for B1
# B13: IL4 P4A-2 D11 scFv (scFv)
# scFv: QAVLTQPPSVSAALGQRVTISCSGSTDNVGTVGASWYQHLPGRAPKLLVYIVGDRPSGVPDRFSGSKSGTSATLTITGLQAEDEADYYCSSWDDSLRGIVFGGGTHLTVLGGGSSRSSSSGGGGSGGGGEEQLVEFGGDLVKPGESLRLSCVASGFTFNKYDMSWVRQAPGKGLQWVATVADDESFAYYTDSVKGRFTISRDNAKNTLYLQMNSLRAEDTAMYYCVGKTGSYWDIDFDLWGPGTLVTISSASTTAPSVTSGQAGQ
# notes: as for B1
# B14: IL4 P3-1 A6 scFv (scFv)
# scFv: QPVLTQPPSVSAALGQRVTISCNTNIGSPYDVQWYQQLPGKSPKTIIYGNSNRPSGVPVRFSGSKSGSTATLTIAGIQAEDEADYYCQSYDDNVDGYVFGSGTQLTVLGGGSSRSSSSGGGGSGGGGEVPLVESGGDLVKPGGSLRLSCVASGFTFHNYDLSWIRQLPGGGLQWVADIDKSGLTFYADAVKGRFTISRDNAKNTLYLQMNSLRAEDTAVYYCATWPLGSWYTETFEYWGQGTLVTVSSASTTAPSVTSGQAGQ
# notes: as for B1
# B15: IL4 P4A-2 G11 scFv (scFv)
# scFv: DIVMTQTPLSLSVSPGEPASISCKASQSLLYSDGNTYLYWFRQKPGQSPQRLISLVSNRDAGVPDRFSGSGSGTDFTLRISRVEADDAGVYYCGQGIQDPITFGKGTHLEIKGGSSRSSSSGGGGSGGGGEVPLVESGGDLVKPGGSLRLSCVASGFPFRSYGMNWVRQSPGGGLQWVAGILFDGSATAYADAVRGRFTISRDNAKNTLYLQMNSLRAEDTAVYYCASDDGSYIEAYNWFYYWGQGTLVTVSSASTTAPSVTSGQAGQ
# notes: as for B1
# Target: T1, Canine IL-13 with C-terminal Avi-HIS tag
# Test: BLI (OCTET HTX); biotin-cIL-13 on SA biosensors, scFv in solution; 1:1 model
# Experimental: (§1) The in vitro binding of anti-canine IL-4 scFv and IL-13 scFv to canine IL-4 and canine IL-13, respectively, was determined by OCTET HTX using SA biosensors and Data Acquisition 12.0 software. First, biotin-labeled antigen (cIL-4 or cIL-13) was loaded onto the pre-rehydrated SA biosensors for 60 seconds (60s) at a concentration of 5 μg/mL. Second, the biosensors were placed into the OCTET Kinetics Buffer (PBS+0.02% Tween20, 0.1% BSA) for the blocking phase for 120s. Third, for the association phase, cIL-4 or cIL-13 antigen loaded biosensors were placed into 2-fold serial dilutions from 500 nM down to 7.8 nM of anti-cIL-4 or anti-cIL-13 scFvs, respectively, in OCTET Kinetics Buffer for 60s. The last well was buffer alone and that sensor was used for reference sensor subtraction. Finally, the biosensors were placed into OCTET Kinetics Buffer for the dissociation phase for 300s. The analysis was performed using Data Analysis 12.0 software and curves were fitted using a 1:1 binding model.
Binder,Kd [nM],koff [s⁻¹],kon [M⁻¹ s⁻¹]
B1,26.8,0.00466,174000
B2,9.09,0.00291,321000
B3,59.7,0.00487,176000

# Target: T2, Canine IL-4 with C-terminal Avi-HIS tag
# Test: BLI (OCTET HTX); biotin-cIL-4 on SA biosensors, scFv in solution; 1:1 model
# Experimental: as §1
Binder,Kd [nM],koff [s⁻¹],kon [M⁻¹ s⁻¹]
B4,4.57,0.00522,1.14e+06
B5,4.5,0.00108,241000
B6,4.13,0.000547,132000
B7,17.5,0.00729,391000
B8,9.92,0.011,954000
B9,3.94,0.00247,594000
B10,52,0.0373,704000
B11,10.3,0.00173,194000
B12,12.7,0.00396,311000
B13,4.38,0.00775,1.52e+06
B14,1.24,0.000272,219000
B15,8.5,0.00117,137000

# From patent US20260234236A1 (INTERVET, published 2026)
